Columns and labels:
CD47-Fc = target: T1, CD47-Fc (UniProt Q08722 19-139); assay: phage ELISA, target-Fc against non-specific control
T1 construct: purified recombinant target-Fc protein; not shown: Fc
Protocol: (§1) Selections were also performed using F1, F2, F3, C1 & C2 trinucleotide phosphoramidite libraries. In most cases, libraries were pooled prior to use in selection. By combining equal volumes of the individual libraries, Pool F (libraries F1, F2 and F3) and Pool C (libraries C1 and C2) were generated. These libraries were used in selections for DBDpp binders to 4-1BB/CD137 as well as a larger panel of purified recombinant “target”-Fc proteins, including CD47, CTLA4, DR5, KIR, LAG3, OX40, PD1, PD-L1 and TIM3. (Many of these targets are considered immuno-regulatory factors (Pardoll et al., Nat. Rev. Cancer 12:252-264 (2012)). After incubation of the target with the pools of DBDpp phage libraries, bound phage-target complexes were captured and separated from unbound phage with protein A beads (target proteins were Fc fusions). After three rounds of selection, rescued phage clones were screened by ELISA for binding to the selected target.
(§2) For each target, approximately 90 DBDpp phage clones were screened by ELISA for binding to the target protein and as well as a non-specific control (e.g., IgG1-Fc). […] In some instances, for the ELISA screening plate in which the majority of DBDpp clones were positive, the entire plate was sequenced.

PD1-Fc = target: T2, PD1-Fc (UniProt Q15116 25-167); assay: as above
T2 construct: purified recombinant target-Fc protein; not shown: Fc
Protocol: as §1, §2

CTLA4-Fc = target: T3, CTLA4-Fc (UniProt P16410 36-161, limits assumed); assay: as above
T3 construct: purified recombinant target-Fc protein; not shown: Fc
Protocol: as §1, §2

[1] = target: T4, Fc-fusion protein comprising the extracellular domain of CD123 fused to human IgG1 Fc (human, UniProt P26951 19-305); assay: flow cytometry, transiently transfected 293T cells incubated with CD123-Fc, detection with PE anti-human IgG; CAR expression by anti-FLAG
T4 construct: also called Fc-CD123; not shown: human IgG1 Fc
T4 sequence: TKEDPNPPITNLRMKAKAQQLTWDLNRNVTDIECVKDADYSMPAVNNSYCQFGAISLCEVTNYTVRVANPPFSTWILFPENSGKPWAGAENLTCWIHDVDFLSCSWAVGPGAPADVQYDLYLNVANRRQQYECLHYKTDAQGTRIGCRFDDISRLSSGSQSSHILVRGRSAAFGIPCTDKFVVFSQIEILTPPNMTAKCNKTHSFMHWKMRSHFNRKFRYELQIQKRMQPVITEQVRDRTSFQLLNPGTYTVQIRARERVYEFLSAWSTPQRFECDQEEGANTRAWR
Protocol: 293T cells were transiently transfected with pcDNA3 expression vectors encoding DBDpp containing CARs using (see, e.g., FIG. 5B) Lipofectamine 3000 (Life Technologies). After 24 hours, cells were collected using CellStripper™. Cells were assessed for CAR expression using a fluorescent-labeled anti-FLAG antibody. DBDpp containing CARs binding to CD123 was measured by incubating cells with a Fc-fusion protein comprising the extracellular domain of CD123 fused to human IgG1 Fc in cell culture media at 37° for 30 minutes, washing, and then detection with a PE anti-human IgG antibody. Both CD123 binding and CAR expression (FLAG Tag) were assayed by flow cytometry. Data are shown in FIG. 17, and each data point indicates the average FLAG expression and CD123-binding for each of the DBDpp-CARs from multiple experiments.

cynomolgus PD-L1 = target: T5, cynomolgus PD-L1 (cynomolgus (Macaca fascicularis), UniProt G7PSE7 19-238); assay: ELISA, FLAG-tagged pb04 on immobilised Cynomolgus PDL1-Fc
T5 construct: also called PD-L1 of cynomolgus (Macaca fascicularis)
Protocol: (§3) FIG. 16A establishes that a soluble DBDpp selected for binding to human PD-L1 (pb04 in this nonlimiting embodiment), can also bind PD-L1 of cynomolgus (Macaca fascicularis), as assessed by ELISA. Human PD-L1 or cynomolgus PD-L1 was immobilized in separate wells of an ELISA plate. Soluble DBDpp (FLAG tagged) directed against PD-L1 was incubated in the respective plates to assess the degree of binding with PD-L1 from each species. As shown, pb04 DBDpp binds to both human and cynomolgus PD-L1.

human PD-L1 = human PD-L1 (human, UniProt Q9NZQ7 19-238, limits assumed); assay: ELISA, FLAG-tagged pb04 on immobilised Human PDL1-Fc
Protocol: as §3

PD-L1-Fc [2] = target: T6, PD-L1-Fc (UniProt Q9NZQ7 19-238); assay: ELISA on PD-L1-Fc, in vitro translated DBDpp-6xHIS heated 2 minutes at 25-100 C and serially diluted, detection with anti-6xHIS-HRP
T6 construct: purified recombinant target-Fc protein; also called FC-PD-L1; not shown: Fc
Protocol: DBDpp-6×HIS fusions (pb04 and pb06) and scFv-6×HIS fusions were expressed through in vitro transcription and translation reactions (NEB, PureExpress). Samples were diluted in ELISA blocking buffer (Thermo Fisher) 30 fold. Individual samples were subsequently incubated at either 25° C., 40° C., 55° C., 70° C. or 100° C. for 2 minutes and then rapidly returned to room temperature. The temperature increase, followed by rapid cooling can cause denaturation of the protein or other breakdown of the three-dimensional structure of proteins that reduce target interaction and/or binding. The ability of proteins to bind with a ligand, such as a target tumor antigen, after being exposed to denaturing conditions indicates either enhanced stability during exposure to elevated temperature or an ability to re-fold and maintain function after exposure. […]
The heat-exposed samples were serially diluted in ELISA buffer and measured for binding to PD-L1-Fc in ELISA. Bound proteins were detected with HRP-conjugated rabbit anti-6×HIS polyclonal antibody (Abcam). […] Since this particular scFv is not configured to bind PD-L1, this function as a negative control, and as expected, no binding is detected for any of the DR5 scFv, regardless of the temperatures they were exposed to. […]

PD-L1-Fc [3] = target: T6, PD-L1-Fc; assay: ELISA, purified FLAG-tagged protein on PD-L1-Fc coated wells
[4] = target: T7, recombinant, biotinylated, Human 4-1BB/TNFRSF9/CD137-Fc (human, UniProt Q07011 24-186, biotinylated (F2NNK selection)); assay: phage ELISA, target-Fc against non-specific control (IgG Fc)
T7 construct: also called 4-1BB/CD137; not shown: Fc
Text: The F2NNK DBD library was used in five rounds of selection against recombinant, biotinylated, Human 4-1BB/TNFRSF9/CD137-Fc.

TIM3-Fc = target: T8, TIM3-Fc (UniProt Q8TDQ0 22-200); assay: phage ELISA, target-Fc against non-specific control
T8 construct: purified recombinant target-Fc protein; not shown: Fc
Protocol: as §1, §2

T2 sequence (Q15116 25-167 limits assumed): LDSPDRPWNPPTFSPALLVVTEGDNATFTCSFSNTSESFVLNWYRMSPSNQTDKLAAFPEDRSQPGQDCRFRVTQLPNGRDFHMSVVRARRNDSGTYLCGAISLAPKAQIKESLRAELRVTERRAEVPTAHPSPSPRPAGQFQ
T1 sequence (Q08722 19-139 limits assumed): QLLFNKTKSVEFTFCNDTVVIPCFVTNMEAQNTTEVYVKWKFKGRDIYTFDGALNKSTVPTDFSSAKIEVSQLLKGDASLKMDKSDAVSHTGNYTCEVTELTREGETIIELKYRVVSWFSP
T6 sequence (Q9NZQ7 19-238 limits assumed): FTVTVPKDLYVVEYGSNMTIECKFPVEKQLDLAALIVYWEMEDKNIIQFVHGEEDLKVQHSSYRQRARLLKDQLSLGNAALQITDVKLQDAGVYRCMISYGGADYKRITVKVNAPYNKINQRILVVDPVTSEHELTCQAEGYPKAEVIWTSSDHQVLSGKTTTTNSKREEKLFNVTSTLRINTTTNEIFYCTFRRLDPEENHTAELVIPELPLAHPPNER
T5 sequence (G7PSE7 entry or part of it): as the sequence (Q9NZQ7 19-238 limits assumed) above, with A33T, A34S, S62N, R68Q, Q82R, F173L, T185A, T192I, H215L counted along it
Chain of human PD-L1 (Q9NZQ7 19-238 limits assumed): as the sequence (Q9NZQ7 19-238 limits assumed) above
T3 sequence (P16410 36-161 limits assumed): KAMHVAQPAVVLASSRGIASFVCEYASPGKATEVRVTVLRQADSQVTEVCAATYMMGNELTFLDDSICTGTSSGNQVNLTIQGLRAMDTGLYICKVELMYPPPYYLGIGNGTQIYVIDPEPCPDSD
T7 sequence (Q07011 24-186 limits assumed): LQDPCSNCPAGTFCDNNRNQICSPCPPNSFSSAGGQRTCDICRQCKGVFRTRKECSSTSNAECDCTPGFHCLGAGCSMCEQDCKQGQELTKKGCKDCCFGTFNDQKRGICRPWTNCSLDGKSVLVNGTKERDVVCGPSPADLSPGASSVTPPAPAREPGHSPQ

B1: SEQ ID NO 24 (designed binder)
chain: MGSWTEFYSRLEAIWVRLQALGGSEAELAMFEDRIAHFEWFLQQYKGKGNPEVEALHEEAIAIRKELAAYRHN
CD47-Fc
  ELISA ratio (target to background): 4.58 ratio

B2: SEQ ID NO 22 (designed binder)
chain: MGSWAEFDHRLHAIRERLHALGGSEAELAAFEKEIAAFESELQAYKGKGNPEVEILRGNAAYIRALLQAYRHN
CD47-Fc
  ELISA ratio (target to background): 11.7 ratio

B3: SEQ ID NO 47 (designed binder)
chain: MGSWVMFKWLLADIKSHLEALGGSEAELAFFEGFIAAFETHLQVYKGKGNPEVEALRKEAAAIRDELQAYRHN
PD1-Fc
  ELISA ratio (target to background): 8.13 ratio

B4: SEQ ID NO 46 (designed binder)
chain: MGSWTIFKEWLAFIKTDLEALGGSEAELAFFEGWIASFEMELQKYKGKGNPEVEALRKEAAAIRDELQAYRHN
PD1-Fc
  ELISA ratio (target to background): 17.1 ratio

B5: SEQ ID NO 23 (designed binder)
chain: MGSWTEFVGRLAAIEFRLWALGGSEAELAWFEAHIAFFEDYLQWYKGKGNPEVEALREEAGAIMEELKAYRHN
CD47-Fc
  ELISA ratio (target to background): 8.23 ratio

B6: SEQ ID NO 25 (designed binder)
chain: MGSWHEFHDRLQAIHERLYALGGSEAELAAFEKEIAAFESELQAYKGKGNPEVESLRIAAAHIRQVLQAYRHN
CTLA4-Fc
  ELISA ratio (target to background): 2.95 ratio

B7: cg06 DBDpp-CAR (other)
chain: MGSWDEFGRRLYAIEWRLYALGGSEAELAAFEKEIAAFESELQAYKGKGNPEVEKLREIAAVIRSNLQAYRHN
notes: expressed on Jurkat NFAT reporter cells; not shown: rest of the CAR (FLAG tag, linker, transmembrane and intracellular domains) not specified
[1]
  binding result: binds

B8: FLAG-pb04 (designed binder)
chain: MGSWYEFTVRLEAIHERLKALGGSEAELAAFEKEIAAFESELQAYKGKGNPEVEILRDDAAFIRRFLQAYRHN
notes: expressed and purified from E. coli; also called N-terminal FLAG tag fusion of pb04; soluble DBDpp (FLAG tagged) directed against PD-L1; not shown: N-terminal FLAG tag
Cynomolgus PD-L1
  EC50: 42.1 nM
Human PD-L1
  EC50: 31.4 nM

B9: pb06 DBDpp-6xHIS fusion (designed binder)
chain: MGSWYEFDDRLNAIHDRLQALGGSEAELAAFEKEIAAFESELQAYKGKGNPEVEDLRDDAAFIRRFLQAYRHN
notes: made by in vitro transcription and translation; not shown: 6xHIS tag
PD-L1-Fc [2]
  binding result: binds

B10: FLAG-α3D (other)
chain: MGSWAEFKQRLAAIKTRLQALGGSEAELAAFEKEIAAFESELQAYKGKGNPEVEALRKEAAAIRDELQAYRHN
notes: expressed and purified from E. coli; also called N-terminal FLAG tag fusion of a3D; alpha3D; not shown: N-terminal FLAG tag
PD-L1-Fc [3]
  binding result: no binding (tested: about 1000 nM)

B11: bb10 (designed binder)
chain: MGSWAEFKQRLAAIKTRLEALGGSEAELAAFLGEIWAFEMELAAYKGKGNPEVEALGREAAAIRMELQAYRHN
notes: F2NNK library clone
[4]
  ELISA ratio (target to background): 5.27 ratio

B12: SEQ ID NO 48 (designed binder)
chain: MGSWYAFKDYLADIKGWLEALGGSEAELAFFEIFIARFELELQAYKGKGNPEVEALRKEAAAIRDELQAYRHN
PD1-Fc
  ELISA ratio (target to background): 3.29 ratio

B13: SEQ ID NO 45 (designed binder)
chain: MGSWVVFKVDLATIKYILEALGGSEAELAEFEGEIAGFEYSLQFYKGKGNPEVEALRKEAAAIRDELQAYRHN
TIM3-Fc
  ELISA ratio (target to background): 5.79 ratio

Source: patent US20180251563A1 (SUBDOMAIN, published 2018)
